# A protein production outcome set (Wang et al. 2014)
# Experiment: label from the status in PepcDB records
row,Sequence,protein production
1,MADVGSLGTRLLRIVLGLCALVLVLLALYVSLGRQLVPLVAEYRQQLEDEAGKQLGIPVRIAELTGSWRGFEPLVVARDIQVGDGEQSLRLARVRLAPDLLGSLLARQVRIGSLELEGLKLTLREGEDGQWSLDGLPHSDKPSDPRKLLQFLLQTQRISLLDSQLEVAPRGSAALSLSAVGATLRSSSVGGQSLDARLQLPDGQPLALHAEGRIDSEDWPRSSARFYLSLPQSDWAQWLPAGLTQEWTIVRAKAGGDFWFDWRDGKAQRLVARLLAPQLKASYAARKPVEINDLGMNLFFDREAQGWKVRVGDLAANFGEQRWGEVELLLRRDQQNNEPHWKLQADRVDLTPLVPAIEALAPLPDAAAEWVAGLKPKGILHNLNADFWPQREVPERVSYATNLEKVGISAFHEVPAVENVSGTLTGTLAGGQLDASAQDFMLHLAKVFPEPWRYREARTRMFWSLDDRAFTLGSHLMRVEGEEGSLAGDMLIRLMRDPGAEDYMDLQVGLSDGDARFTAKYLPTQLPGMNKSLANWLKTAIRSGHVEQGYFQWQGSLNRGAAAEAHVMNLYFKVRDGELAYQPGWPALSKTVGEVFVEDSGVRVLASSGNLLNSRVSDVKVDIPLGRPGQTPHLYVDGAVDSNLKDGIKLLQEAPIPTRKIFAGWEGDGPLQGHLTLDIPLDHDEAGKTGVVVDFSTVGATLKMPSPKLDMSEVKGDFRFDLAKGLSAPAVQARVLGSEVRGRIVAEGRGDARTRLLLNGQVAVKSLSDWLGAGQRPLPVSGRLPFQLNLLLDGKDSQLQIDSDLKGAVVDLPAPFGKTAAQARPTQWRMTLDGAERRYWARYDGLASLAYAAPADKPLNGRGALRLGGDPALLPSAQGLRVRGRLAELDWDAWQATLKRYGNGDQAASSAAGLLRGADLRIDSFKGFGQELKNLTVDLARQERAWQLVLVSDLASGRLVLPDARGAPIVVDLDRLNLPKSTLPDENKVEDSDPLAAVDPRSLPAVDVKIGQVALGGQPLGAWSLKVRPGSNGVAFNDLDLDLRGLHVNGSLRWDGSPGNTRSTYQGRIEGKNLADVLKAWNFAPSATSERFRMDINGQWPGSPAYMALKRFSGSMDASLRKGQFVEVEGSAQALRVFGLLNFNAINRRLRLDFSDILGKGLSYDRVKGVLSATDGVYVTREPLKLEGPSSNLELNGTLDLAHDRIDAKLLVTLPLTNNLTLAALIVGGPAVGGAVFVVDKLLGDRVSRFASVQYSVKGPWQDPKISFDKPFEKPR,failed
2,MAEAANKNKPHKLIIDNRNSMSMTGVTKVISIDTDLVLLVTEQGKLKITGKNMQASTLDLDKGILELTGNFNTMVYSGEKEGALSLKSLFK,failed
3,MAEAKSRVGRPSGDTQNRDKLILAARNLFIERPYAQVSIREIASLAGTDPGLIRYYFGSKEKLFSTMIHETAMPVLAQLHKARRETRQESPAALLQTYYSVMSKHPHFPRLMLRIAGLDQSLPENAEVTKAFYEVVNFENIAIFQRLKDKNLLKDDVDAHCAQLSFFAMMVFPFIVPENLLERVGIELTPDFLQLLAEQNTRLLQRGLMDVKDERDE,not failed
4,MAEAPPVSGTFKFNTDAAEFIPQERKTSGLNCGTQRRLDSSRIGRRNYSSSPPCHLPRHIPYEDISAVHQHSYASGSKPKSPQGFFQSSNKSLKNHGLQNQPWQKARNEKHQNRNKKAQGLSEQTSDTSSLESVARSESGTNPREHSPSESEKEVVIADPRGAKPKKAAQLTYNYGRGPKAKGRLRSEWGNRMSPKSEDENTRPVAISHTDSSDASCRKPVVDPCVCRRNEQRRYPQKRPPWEVEGARPRPGRNPPKQESQRHINAGPKTNMSPIPKDNLRERPTKSACDTGNLAVVSKSSRRVNQEKTAVRRQDPQVLSPFPRGKQNHMLKNVETHTGSLIEQLTTEKYECMVCCELVQVTAPVWSCQSCFHVFHLNCIKKWARSPASHADGQSGWRCPACQNVSAHVPNTYTCFCGKVKNPEWSRNEIPHSCGEVCRKKQPGQDCPHSCNLLCHPGPCPPCPAFTTKTCECGRTRHTVRCGQPVSVHCSNACENILNCGQHHCAELCHGGQCQPCRIILNQVCYCGSTSRDVLCGTDVGKSDGFGDFSCLKICGKDLKCGSHTCSQVCHPQPCQPCPRLPHLVRYCPCGQTPLSQLLEHGSNARKTCMDPVPSCGKVCGKPLACGSSDFIHTCEKLCHEGDCGPCSRTSVISCRCSFRTKELPCTSLKSEDATFMCDKRCNKKRLCGRHKCNEICCVDKEHKCPLICGRKLRCGLHRCEEPCHRGNCQTCWQASFDELTCHCGASVIYPPVPCGTRPPECTQTCARIHECDHPVYHSCHSEEKCPPCTFLTQKWCMGKHEELTIKKLWTFKETLDF,not failed
5,MAEEKIKKSLLAADDSDDEYSRGDTVSDQTELSSILDKLSLEPKTEKKKLLVLSLSGLLLHRVHKKELRKKPKNRSPDASCGPNLVYKRPFAEEFMKFCLERFEVGIWSSACELVSSLNILIVTGPRECTDSGYKTLENRYKPLFFKDLSKVFKCFKGFSASNTIFIDDEPYKALRNPDNTGLFPMSYDASNIKDNLLDPEGELCSYLEGLAKSSDVQAYIKVHSFGRPMIDSSHPDWSFYSNVSKIVS,failed
6,MAEEKKKKLSIIVFSGTIDKLMPVGILTSGAAASGYEVNLFFTFWGLQAITKRSLNSQQPPQIDKNYEQMGPIMMQKMQEMKYPMWHQLVQQAKEIGEVKVFACSTTMEFFGIKREDLAEFVDDVVGVATFLDRAEGGTTLFI,not failed
7,MAEEQQPSTDDETAAKSATTKQASPKAETDQSATQPVEDQPTATPEEVAALEKKAADFEDKYLRAEAEVQNMQARFQKEQATLIKYDGQQLAKDVLPVIDNLERALAVEASDDVAAQIKKGVQMTYDHLEDALKRNHVTEIAALGQTFDPTLHQAVQSVPAEDGQTAETVVNVLQKGYQLKDRVLRPAMVVVAQ,failed
8,MAEGKPDEQLFQLLSGLLQQVESLTNTEEVELRSKIEALGLEVTKVPSKSAQHLNEVEIAKELDKLSAKLDDVDEMISSAIASDPQVQTLLSGTADVWMPVITAGAEERLNFTASLADDDDLSNKETTTDNTSSS,not failed
9,MAEGSSLALPRVSASLHEPARAFSFRLDEGKSPWVEVVITIGSFPRCPEVTMMWPPPPTFSVFLLLLLSQVPSSRPQSPGTKKLRLVGPANRPEEGRLEVLHQGQWGTVCDDDFALQEATVACRQLGFESALTWAHSAKFGQGEGPIWLDNVRCLGTEDTLDQCGSNGWGVSDCRHSEDVGVVCHPRRQQGYHSEKVSNALGPQGRRLEEVRLKPILASAKRHSPVTEGAVEVRYEGHWRQVCDQGWTMNNSRVVCGMLGFPSQAPVNSHYYRKVWNLKMKDPKSRLNGLTKKNSFWIHRVDCLGTEPHLAKCQVQVAPGRGKLRPACPGGMHAVVNCVAGPHFQRQKPKPKRKESGAEELKVRLRSGAQVGEGRVEVLMNRQWGTVCDHRWNLISASVVCRQLGFGSAREALFGAQLGQGLGPIHLSEVRCRGYEQTIGDCLALEGSQNGCQHANDAAVRCNIPDMGFQNKVRLAGGRNSEEGVVEVQVEVNGVPRWGTVCSDHWGLTEAMVTCRQLGLGFANFAIKDTWYWQGTPEAKEVVMSGVRCSGTEMALQQCQRHGPVHCSHGSGRFSAGVACMNSAPDLVMNAQLVQETAYLEDRPLSMLYCAHEENCLSKSADHMDWPYGHRRLLRFSSQIYNLGRADFRPKAGRHSWIWHQCHRHYHSIEVFTHYDLLTLNGSKVAEGHKASFCLEDTNCPSGVQRRYACANFGEQGVAVGCWDTYRHDIDCQWVDITDVSPGDYIFQVVVNPTNDVAESDFSNNMIRCRCKYDGQRVWLHNCHTGDPYRPNAELSLEQEQRLRNNLI,failed
10,MAEHGETQADEEEEEQVWSWGAGTDGQLGTTKLQDELLPQLLSLTSLPSISMLACGGAHVIALTSGGKVFTWGRGSSGQLGHGDILNITLPKLVSFFDDSVITQAAAGWSHSGFVSDSGCIFTCGNGSFGQLGHGDTLSLSTPAKVSHFNNDSVKMVACGMRHSLVLFAGNQVCGFGSGKRGQLGFSSDRIKSVNLPCVVSGLKDVEVVRISANGDHSAAISADGQFFSWGRGFCGGPDVHAPQSLPSPLSFREVAVGWNHALLLTVDGEVFKLGSTLNKQPEKQQLQIDSSEALFEKVPDFDGVKVMQIAAGAEHSAAVTENGEVKTWGWGEHGQLGLGNTNDQTSPELVSLGSIDLRTKEIKVYCGSGFTYAVKRKQELSPTSS,failed
11,MAEILRLSPAICAYPDETYENLKIEVVLPGVEKENISFKVVEDGFYVKATKEGVEYTDSYAVCCPISPEKATATYSNGVLKVNVPYQQPFEKAVDVKIE,failed
12,MAEITENTKKILEVILNLKEGQVMSYRDVGALAGLPNGARQVSRILHSMSKKYELPWWRVVRSDRTIGLPEPAKSEQMELLKKEGISFTAQGKIIIEDELLLEHHHHHH,not failed
